From patent US20200317768A1 (published 2020)
Substitutions are numbered along the chain they refer to. Names may count otherwise.

How the values were obtained:
[1] = molecular target: T1, human FcγRIIb extracellular domain, C-terminal His-tag (human, UniProt P31994 43-217); experiment: SPR; KD of SG1 divided by KD of variant;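 further: relative to parent M103205H795-SG1 carrying the SG1 human heavy chain constant region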
T1 construct: also called FcgRIIb; not shown: His-tag added to the C-terminus
T1 sequence: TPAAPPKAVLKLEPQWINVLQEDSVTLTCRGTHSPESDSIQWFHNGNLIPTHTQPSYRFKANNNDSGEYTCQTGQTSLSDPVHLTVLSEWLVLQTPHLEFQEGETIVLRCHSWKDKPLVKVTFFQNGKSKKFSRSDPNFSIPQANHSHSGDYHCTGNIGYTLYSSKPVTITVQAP
Experimental: (§1) The kinetic analysis of interactions between these antibodies and FcγR was carried out using BIACORE® T200 or BIACORE® 4000 (GE Healthcare). HBS-EP+ (GE Healthcare) was used as the running buffer, and the measurement temperature was set to 25° C. A chip produced by immobilizing Protein A. Protein A/G or mouse anti-human IgG kappa light chain (BD Biosciences) onto a Series S Sensor Chip CM4 or CM5 (GE Healthcare) by the amine-coupling method was used. […] After the measurement, the antibody captured on the chip was washed off by allowing reaction with 10 mM glycine-HCl, pH1.5 and 25 mM NaOH so that the chip was regenerated and used repeatedly. The sensorgrams obtained as measurement results were analyzed by the 1:1 Langmuir binding model using the BIACORE® Evaluation Software to calculate the binding rate constant ka (L/mol/s) and dissociation rate constant kd (l/s), and the dissociation constant KD (mol/L) was calculated from these values. […] Regarding such interactions, KD values were calculated using the following 1:1 binding model described in BIACORE® T100 Software Handbook BR1006-48 Edition AE.

[2] = molecular target: T2, cynomolgus monkey FcγRIIb extracellular domain, C-terminal His-tag (cynomolgus monkey); experiment: SPR (BIACORE) 25C, antibody captured, FcgR as analyte
T2 construct: also called cyno FcγRIIb; cynoFcγRIIb
T2 chain: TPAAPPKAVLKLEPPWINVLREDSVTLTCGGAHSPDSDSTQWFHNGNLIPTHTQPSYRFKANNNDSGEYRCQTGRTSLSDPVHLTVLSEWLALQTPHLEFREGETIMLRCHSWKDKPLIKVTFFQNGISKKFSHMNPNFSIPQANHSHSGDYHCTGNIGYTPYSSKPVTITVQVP
Experimental: as §1

[3] = molecular target: T3, human FcγRIIaR extracellular domain, C-terminal His-tag (human, UniProt P12318 34-217); experiment: as above
T3 construct: also called human FcγRIIa (type R); FcgRIIaR
T3 chain: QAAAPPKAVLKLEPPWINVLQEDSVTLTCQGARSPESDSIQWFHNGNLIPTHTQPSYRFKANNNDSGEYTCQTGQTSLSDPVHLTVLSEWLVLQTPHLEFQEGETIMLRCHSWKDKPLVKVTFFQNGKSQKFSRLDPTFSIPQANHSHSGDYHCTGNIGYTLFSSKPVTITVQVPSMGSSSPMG
Experimental: as §1

[4] = molecular target: T4, human FcγRIIaH extracellular domain, C-terminal His-tag (human, UniProt P12318 34-217); experiment: SPR; KD of SG1 / KD of variant;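 further: relative to parent M103205H795-SG1 carrying the SG1 human heavy chain constant region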
T4 construct: also called human FcγRIIa (type H); FcgRIIaH
T4 sequence: T3 chain with R134H
Experimental: as §1

[5] = molecular target: T5, cynomolgus monkey FcγRIIa3 extracellular domain, C-terminal His-tag (cynomolgus monkey); experiment: SPR; KD of SG1 / KD of variant;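 further: relative to parent M103205H795-SG1 carrying the SG1 human heavy chain constant region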
T5 construct: also called cyno FcγRIIa3; FcgRIIa3
T5 chain: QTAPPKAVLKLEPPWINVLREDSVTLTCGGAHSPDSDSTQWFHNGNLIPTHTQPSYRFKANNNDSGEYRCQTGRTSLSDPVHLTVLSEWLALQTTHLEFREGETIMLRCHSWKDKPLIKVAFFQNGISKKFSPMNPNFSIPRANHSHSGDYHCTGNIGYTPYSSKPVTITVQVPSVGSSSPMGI
Experimental: as §1

[6] = molecular target: T2, cynomolgus monkey FcγRIIb extracellular …; experiment: SPR; KD of SG1 / KD of variant;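 further: relative to parent M103205H795-SG1 carrying the SG1 human heavy chain constant region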
Experimental: as §1

[7] = molecular target: T6, human FcγRIIb extracellular domain, C-terminal His-tag (human, UniProt P31994 43-217); experiment: SPR; KD of SG1 / KD of variant
T6 construct: also called FcgRIIb (human)
T6 sequence: T1 sequence
Experimental: as §1

[8] = molecular target: T7, cynomolgus monkey FcγRIIa1 extracellular domain, C-terminal His-tag (cynomolgus monkey); experiment: SPR; KD of SG1 / KD of variant
T7 construct: also called cyno FcγRIIa1; FcgRIIa1
T7 chain: T5 chain with T95P, A121T, S128A, P133H, N135D
Experimental: as §1

[9] = molecular target: T8, cynomolgus monkey FcγRIIIaS extracellular domain, C-terminal His-tag (cynomolgus monkey, UniProt Q8SPW2 21-206 at identity 1.00)); experiment: SPR; KD of SG1 / KD of variant
T8 construct: also called cyno FcγRIIIaS; FcgRIIIaS
T8 chain: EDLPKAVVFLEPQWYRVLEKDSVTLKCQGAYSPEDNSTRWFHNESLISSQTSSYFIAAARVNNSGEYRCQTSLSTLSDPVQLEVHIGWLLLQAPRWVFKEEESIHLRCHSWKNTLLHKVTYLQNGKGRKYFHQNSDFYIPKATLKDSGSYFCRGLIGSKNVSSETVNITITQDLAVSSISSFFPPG
Experimental: as §1

[10] = molecular target: T9, cynomolgus monkey FcγRIIa2 extracellular domain, C-terminal His-tag (cynomolgus monkey); experiment: SPR; KD of SG1 / KD of variant
T9 construct: also called cyno FcγRIIa2; FcgRIIa2
T9 chain: T5 chain with I127K, K130N, P133H, R142Q
Experimental: as §1

[11] = molecular target: T3, human FcγRIIaR extracellular domain, …; experiment: SPR; KD of SG1 / KD of variant
Experimental: as §1

B1: MS1032LO06-SG1 (M103205H795-SG1/M103202L889-SK1) (antibody, human IgG1, kappa)
heavy: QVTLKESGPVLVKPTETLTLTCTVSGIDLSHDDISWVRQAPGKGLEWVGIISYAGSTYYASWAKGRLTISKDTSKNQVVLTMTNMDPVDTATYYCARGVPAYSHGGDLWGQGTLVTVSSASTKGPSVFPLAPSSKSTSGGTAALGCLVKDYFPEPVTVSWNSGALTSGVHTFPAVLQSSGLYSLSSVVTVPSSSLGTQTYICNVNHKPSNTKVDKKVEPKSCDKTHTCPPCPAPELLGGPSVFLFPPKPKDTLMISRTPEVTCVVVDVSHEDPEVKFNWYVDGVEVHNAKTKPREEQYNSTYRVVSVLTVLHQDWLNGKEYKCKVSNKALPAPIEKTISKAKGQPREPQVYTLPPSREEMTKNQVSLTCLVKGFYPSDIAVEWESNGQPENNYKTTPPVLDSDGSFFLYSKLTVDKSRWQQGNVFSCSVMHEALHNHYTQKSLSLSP
light: DIVMTQSPATLSLSPGERATLSCTSSQSVYHANWLSWFQQKPGQPPKLLIYWASTLAYGVPSRFSGSGSGTDFTLTISSLQPEDAATYYCAGGYGGGRYAFGQGTKVEIKRTVAAPSVFIFPPSDEQLKSGTASVVCLLNNFYPREAKVQWKVDNALQSGNSQESVTEQDSKDSTYSLSSTLTLSKADYEKHKVYACEVTHQGLSSPVTKSFNRGEC
notes: Anti-latent myostatin antibody
KD fold (SG1 = 1) [1]: 1 fold

B2: MS_M103205H795-SG1/M103202L889-SK1 (antibody, human IgG1, kappa)
heavy: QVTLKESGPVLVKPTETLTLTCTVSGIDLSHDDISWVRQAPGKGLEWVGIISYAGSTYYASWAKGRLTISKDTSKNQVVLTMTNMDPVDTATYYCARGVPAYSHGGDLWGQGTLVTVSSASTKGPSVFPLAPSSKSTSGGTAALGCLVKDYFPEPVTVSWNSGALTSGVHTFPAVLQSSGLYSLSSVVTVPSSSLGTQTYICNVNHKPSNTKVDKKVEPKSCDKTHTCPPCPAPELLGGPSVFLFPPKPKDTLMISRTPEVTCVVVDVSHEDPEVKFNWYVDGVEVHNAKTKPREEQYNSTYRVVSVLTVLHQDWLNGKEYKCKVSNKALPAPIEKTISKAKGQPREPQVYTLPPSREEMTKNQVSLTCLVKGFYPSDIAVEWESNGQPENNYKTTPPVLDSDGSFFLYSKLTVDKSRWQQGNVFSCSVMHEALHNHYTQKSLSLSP
light: B1 light
notes: also called MS1032LO06-SG1
Kd [2]: 1.7 µM | Kd [3]: 1.4 µM | KD fold (SG1 = 1) [4]: 1 fold | KD fold (SG1 = 1) [5]: 1 fold | KD fold (SG1 = 1) [6]: 1 fold | KD fold (SG1 = 1) [7]: 1 fold | KD fold (SG1 = 1) [8]: 1 fold | KD fold (SG1 = 1) [9]: 1 fold | KD fold (SG1 = 1) [10]: 1 fold | KD fold (SG1 = 1) [11]: 1 fold

B3: MS1032LO06-PK57 (M103205H795-PK57/M103202L889-SK1) (antibody, human IgG1, kappa)
heavy: QVTLKESGPVLVKPTETLTLTCTVSGIDLSHDDISWVRQAPGKGLEWVGIISYAGSTYYASWAKGRLTISKDTSKNQVVLTMTNMDPVDTATYYCARGVPAYSHGGDLWGQGTLVTVSSASTKGPSVFPLAPSSKSTSGGTAALGCLVKDYFPEPVTVSWNSGALTSGVHTFPAVLQSSGLYSLSSVVTVPSSSLGTQTYICNVNHKPSNTKVDKKVEPKSCDKTHTCPPCPAPELLNGPSVFLFPPKPKDTLMISRTPEVTCVVVDVSDEDPEVKFNWYVDGVEVHNAKTKPREEQYNSTYRVVSVLTVLHRDWLNGKEYKCKVSNKALPKPIEKTISKAKGQPREPQVYTLPPSREEMTKNQVSLTCLVKGFYPSDIAVEWESRGQPENNYKTTPPVLDSDGSFFLYSKLTVRKSRWQQGNVFSCSVMHEALHNHYTQKSLSLSP
light: B1 light
notes: CH PK57 = SG1 with G236N/H268D/Q311R/A330K/N384R/D413R (EU numbering); also called MS103205H795-PK57
KD fold (SG1 = 1) [1]: 4.1 fold

B4: M103205H795-MY009/M103202L889-SK1 (antibody, human IgG1, kappa)
heavy: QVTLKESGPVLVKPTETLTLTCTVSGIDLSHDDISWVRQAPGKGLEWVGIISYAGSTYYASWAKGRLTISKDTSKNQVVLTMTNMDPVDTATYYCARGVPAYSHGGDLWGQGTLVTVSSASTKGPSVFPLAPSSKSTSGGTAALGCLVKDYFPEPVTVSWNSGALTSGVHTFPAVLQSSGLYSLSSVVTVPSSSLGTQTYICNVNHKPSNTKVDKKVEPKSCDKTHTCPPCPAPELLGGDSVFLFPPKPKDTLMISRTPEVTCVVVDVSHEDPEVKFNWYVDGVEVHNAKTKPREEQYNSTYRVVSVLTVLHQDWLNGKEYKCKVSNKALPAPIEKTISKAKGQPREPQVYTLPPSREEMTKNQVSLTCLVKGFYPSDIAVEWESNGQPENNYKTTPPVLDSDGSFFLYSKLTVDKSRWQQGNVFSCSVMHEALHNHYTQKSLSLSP
light: B1 light
notes: CH MY009 = SG1 with P238D (EU numbering); also called MS1032LO06-MY009
Kd [2]: 4.9 µM | Kd [3]: 20 µM | KD fold (SG1 = 1) [4]: 0.01 fold | KD fold (SG1 = 1) [5]: 0.5 fold | KD fold (SG1 = 1) [6]: 0.4 fold | KD fold (SG1 = 1) [7]: 3.3 fold | KD fold (SG1 = 1) [8]: 0.2 fold | KD fold (SG1 = 1) [9]: 0.004 fold | KD fold (SG1 = 1) [10]: 0.2 fold | KD fold (SG1 = 1) [11]: 0.1 fold

B5: MS1032LO06-MY352 (M103205H795-MY352/M103202L889-SK1) (antibody, human IgG1, kappa, name in EU numbering)
heavy: B3 heavy with R386N
light: B1 light
notes: Printed substitutions: G236N/H268D/Q311R/A330K/D413R (EU numbering); also called MS103205H795-MY352
KD fold (SG1 = 1) [1]: 4.6 fold

B6: MS1032LO06-PK55 (M103205H795-PK55/M103202L889-SK1) (antibody, human IgG1, kappa)
heavy: B3 heavy with P345R, R386N, R415D
light: B1 light
notes: CH PK55 = SG1 with G236N/H268D/Q311R/A330K/P343R (EU numbering); also called MS103205H795-PK55
KD fold (SG1 = 1) [1]: 6.3 fold

B7: MS1032LO06-MY201 (M103205H795-MY201/M103202L889-SK1) (antibody, human IgG1, kappa)
heavy: B3 heavy with R313Q, R386N, R415D
light: B1 light
notes: CH MY201 = SG1 with G236N/H268D/A330K (EU numbering); also called MS103205H795-MY201
KD fold (SG1 = 1) [1]: 5.6 fold

B8: MS1032LO06-MY351 (M103205H795-MY351/M103202L889-SK1) (antibody, human IgG1, kappa)
heavy: B3 heavy with R386N, R415K
light: B1 light
notes: CH MY351 = SG1 with G236N/H268D/Q311R/A330K/D413K (EU numbering); also called MS103205H795-MY351
KD fold (SG1 = 1) [1]: 4.9 fold

B9: MS1032LO06-PK56 (M103205H795-PK56/M103202L889-SK1) (antibody, human IgG1, kappa)
heavy: B3 heavy with P345R, R386N
light: B1 light
notes: CH PK56 = SG1 with G236N/H268D/Q311R/A330K/P343R/D413R (EU numbering); also called MS103205H795-PK56
KD fold (SG1 = 1) [1]: 4.7 fold
